Publication PMC9815587, “The structure of the human LACTB filament reveals the mechanisms of assembly and membrane binding” (PLOS Biology, 2022)

B1: human LACTB (residues 97 to 547), wild-type (enzyme, UniProt P83111 97-547, looked up)
chain: APPCSRCFARAIESSRDLLHRIKDEVGAPGIVVGVSVDGKEVWSEGLGYADVENRVPCKPETVMRIASISKSLTMVALAKLWEAGKLDLDIPVQHYVPEFPEKEYEGEKVSVTTRLLISHLSGIRHYEKDIKKVKEEKAYKALKMMKENVAFEQEKEGKSNEKNDFTKFKTEQENEAKCRNSKPGKKKNDFEQGELYLREKFENSIESLRLFKNDPLFFKPGSQFLYSTFGYTLLAAIVERASGCKYLDYMQKIFHDLDMLTTVQEENEPVIYNRARFYVYNKKKRLVNTPYVDNSYKWAGGGFLSTVGDLLKFGNAMLYGYQVGLFKNSNENLLPGYLKPETMVMMWTPVPNTEMSWDKEGKYAMAWGVVERKQTYGSCRKQRHYASHTGGAVGASSVLLVLPEELDTETINNKVPPRGIIVSIICNMQSVGLNSTALKIALEFDKDRSD
notes: human LACTB (serine beta-lactamase-like protein, mitochondrial), residues 97 to 547 of the gene product of residues 1 to 547; Assembles into helical filaments of stacked antiparallel dimers; number of copies not fixed; also called WT LACTB; serine beta-lactamase-like protein; source: E. coli BL21(DE3)-RIPL, purified (Ni-NTA, tag removed with Ulp1, SEC on Superose 6 Increase); not shown: His6, …
B2: human LACTB (residues 97 to 547) with the L15 loop (V467 to Y482) replaced by a GGS linker (enzyme)
chain: APPCSRCFARAIESSRDLLHRIKDEVGAPGIVVGVSVDGKEVWSEGLGYADVENRVPCKPETVMRIASISKSLTMVALAKLWEAGKLDLDIPVQHYVPEFPEKEYEGEKVSVTTRLLISHLSGIRHYEKDIKKVKEEKAYKALKMMKENVAFEQEKEGKSNEKNDFTKFKTEQENEAKCRNSKPGKKKNDFEQGELYLREKFENSIESLRLFKNDPLFFKPGSQFLYSTFGYTLLAAIVERASGCKYLDYMQKIFHDLDMLTTVQEENEPVIYNRARFYVYNKKKRLVNTPYVDNSYKWAGGGFLSTVGDLLKFGNAMLYGYQVGLFKNSNENLLPGYLKPETMVMMWTPVPNTEMSWDKEGKYAMAWGVGGSASHTGGAVGASSVLLVLPEELDTETINNKVPPRGIIVSIICNMQSVGLNSTALKIALEFDKDRSD
notes: human LACTB, residues 97 up to the residue before V467; glycine-glycine-serine (GGS) linker in place of V467 to Y482; human LACTB, from the residue after Y482 to 547; also called L15 loop replacement; removal of the L15 loop; source: E. coli BL21(DE3)-RIPL, purified (Ni-NTA, tag removed with Ulp1, SEC on Superose 6 Increase); not shown: His6, N-terminal, cleaved; SUMO, N-terminal, cleaved
B3: human LACTB (residues 97 to 547) with the flexible loop region (residues K255 to K284) replaced by a GGS linker (enzyme)
chain: APPCSRCFARAIESSRDLLHRIKDEVGAPGIVVGVSVDGKEVWSEGLGYADVENRVPCKPETVMRIASISKSLTMVALAKLWEAGKLDLDIPVQHYVPEFPEKEYEGEKVSVTTRLLISHLSGIRHYEKDIKKVKEEKAYKALKMMKENVAFEQEKEGGGSNDFEQGELYLREKFENSIESLRLFKNDPLFFKPGSQFLYSTFGYTLLAAIVERASGCKYLDYMQKIFHDLDMLTTVQEENEPVIYNRARFYVYNKKKRLVNTPYVDNSYKWAGGGFLSTVGDLLKFGNAMLYGYQVGLFKNSNENLLPGYLKPETMVMMWTPVPNTEMSWDKEGKYAMAWGVVERKQTYGSCRKQRHYASHTGGAVGASSVLLVLPEELDTETINNKVPPRGIIVSIICNMQSVGLNSTALKIALEFDKDRSD
notes: human LACTB, residues 97 up to the residue before K255; GGS linker in place of K255 to K284; human LACTB, from the residue after K284 to 547; also called ΔL6; flexible loop deletion; source: E. coli BL21(DE3)-RIPL, purified (Ni-NTA, tag removed with Ulp1, SEC on Superose 6 Increase); not shown: His6, N-terminal, cleaved; SUMO, N-terminal, cleaved
B4: human LACTB (residues 97 to 547) 259EAxAxEAE266 mutant (enzyme, UniProt P83111 97-547, looked up)
chain: APPCSRCFARAIESSRDLLHRIKDEVGAPGIVVGVSVDGKEVWSEGLGYADVENRVPCKPETVMRIASISKSLTMVALAKLWEAGKLDLDIPVQHYVPEFPEKEYEGEKVSVTTRLLISHLSGIRHYEKDIKKVKEEKAYKALKMMKENVAFEQEKEGKSNEEADATEAETEQENEAKCRNSKPGKKKNDFEQGELYLREKFENSIESLRLFKNDPLFFKPGSQFLYSTFGYTLLAAIVERASGCKYLDYMQKIFHDLDMLTTVQEENEPVIYNRARFYVYNKKKRLVNTPYVDNSYKWAGGGFLSTVGDLLKFGNAMLYGYQVGLFKNSNENLLPGYLKPETMVMMWTPVPNTEMSWDKEGKYAMAWGVVERKQTYGSCRKQRHYASHTGGAVGASSVLLVLPEELDTETINNKVPPRGIIVSIICNMQSVGLNSTALKIALEFDKDRSD
notes: human LACTB, residues 97 to 547, motif 259KNxFxKFK266 changed to 259EAxAxEAE266; single changes counted out from the printed motifs; source: E. coli BL21(DE3)-RIPL, purified (Ni-NTA, tag removed with Ulp1, SEC on Superose 6 Increase); not shown: His6, N-terminal, cleaved; SUMO, N-terminal, cleaved
B5: human LACTB (residues 97 to 547) 274ExExxExxEEE284 mutant (enzyme, UniProt P83111 97-547, looked up)
chain: APPCSRCFARAIESSRDLLHRIKDEVGAPGIVVGVSVDGKEVWSEGLGYADVENRVPCKPETVMRIASISKSLTMVALAKLWEAGKLDLDIPVQHYVPEFPEKEYEGEKVSVTTRLLISHLSGIRHYEKDIKKVKEEKAYKALKMMKENVAFEQEKEGKSNEKNDFTKFKTEQENEAECENSEPGEEENDFEQGELYLREKFENSIESLRLFKNDPLFFKPGSQFLYSTFGYTLLAAIVERASGCKYLDYMQKIFHDLDMLTTVQEENEPVIYNRARFYVYNKKKRLVNTPYVDNSYKWAGGGFLSTVGDLLKFGNAMLYGYQVGLFKNSNENLLPGYLKPETMVMMWTPVPNTEMSWDKEGKYAMAWGVVERKQTYGSCRKQRHYASHTGGAVGASSVLLVLPEELDTETINNKVPPRGIIVSIICNMQSVGLNSTALKIALEFDKDRSD
notes: human LACTB, residues 97 to 547, motif 274KxRxxKxxKKK284 changed to 274ExExxExxEEE284; single changes counted out from the printed motifs; source: E. coli BL21(DE3)-RIPL, purified (Ni-NTA, tag removed with Ulp1, SEC on Superose 6 Increase); not shown: His6, N-terminal, cleaved; SUMO, N-terminal, cleaved
B6: human LACTB (residues 97 to 547) R117E (enzyme, UniProt P83111 97-547, looked up)
chain: APPCSRCFARAIESSRDLLHEIKDEVGAPGIVVGVSVDGKEVWSEGLGYADVENRVPCKPETVMRIASISKSLTMVALAKLWEAGKLDLDIPVQHYVPEFPEKEYEGEKVSVTTRLLISHLSGIRHYEKDIKKVKEEKAYKALKMMKENVAFEQEKEGKSNEKNDFTKFKTEQENEAKCRNSKPGKKKNDFEQGELYLREKFENSIESLRLFKNDPLFFKPGSQFLYSTFGYTLLAAIVERASGCKYLDYMQKIFHDLDMLTTVQEENEPVIYNRARFYVYNKKKRLVNTPYVDNSYKWAGGGFLSTVGDLLKFGNAMLYGYQVGLFKNSNENLLPGYLKPETMVMMWTPVPNTEMSWDKEGKYAMAWGVVERKQTYGSCRKQRHYASHTGGAVGASSVLLVLPEELDTETINNKVPPRGIIVSIICNMQSVGLNSTALKIALEFDKDRSD
notes: human LACTB, residues 97 to 547, polymer interface 1 charge-reversal mutant; source: E. coli BL21(DE3)-RIPL, purified (Ni-NTA, tag removed with Ulp1, SEC on Superose 6 Increase); not shown: His6, N-terminal, cleaved; SUMO, N-terminal, cleaved

Target: the molecule itself
Experiment: SEC; Superose 6 Increase 10/300 GL; 20 mM HEPES-NaOH (pH 7.5), 140 mM NaCl, 10 mM KCl, 1 mM MgCl2, 1 mM DTT; self-assembly, filaments elute within the void volume
B1: binds.

Target: the molecule itself
Experiment: negative-stain TEM; SEC peak fractions diluted to approximately 2.0 μm (so in the source), 0.75% uranyl formate, Tecnai T12 at 100 kV; self-assembly into filaments
B2: binds. B3: binds. B4: binds. B5: binds. B6: binds.
